The supplement of paper PMC10126150
± gives the standard deviation of the averaged measurements.

The sequences below were run on ATP (assay: switch fluorescence ratio, 500 uM ATP over buffer (Cy3 cluster intensity, sum of 5 cycles each) (fold (ratio)); higher = stronger signal-on switching upon ATP binding; sequences stand for … in TCGTCGGCAGCGTCAGATGTGTATAAGAGACAGTTTTTTTTTTTTTTTTTTTTTTTTT…TC). Details: aptamer strand: ATP DNA aptamer (quencher-CACCTGGGGGAGTATTGCGGAGGAAGG + anchor), 100 nM annealed; ATP concentration: 500 uM.
Summary of the method: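 Switching-strand clusters labelled with Cy3 on a modified Illumina MiSeq flow-cell were annealed to 100 nM quencher-labelled ATP aptamer, imaged in selection buffer, and re-imaged after 15 min with 500 uM ATP at 22 °C. This was done over five cycles with NaOH stripping and re-annealing in between. The fluorescence ratio is summed target-cycle over summed buffer-cycle Cy3 intensity per cluster, averaged per switch-domain sequence, excluding clusters outside 100-1000 RFU.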
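Note: ATP exposure 15 min at 22 °C before imaging.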

Row | Sequence | switch fluorescence ratio
1 | GCGGGGA | 0.998 ± 0.015
2 | TTGCGATATT | 1.27 ± 0.36
3 | ACTGAGGTAA | 0.95 ± 0.043
4 | AGTAGGTAAA | 1.03 ± 0.023
5 | ATACGGCATG | 1.08 ± 0.011
6 | TGGTATTTGG | 0.949 ± 0.046
7 | ATGGGTAGGG | 0.967 ± 0.017
8 | CGATGGTACG | 0.946 ± 0.05
9 | GGACCCTAAC | 1.08 ± 0.062
10 | ACTCTGGCGT | 1.08 ± 0.024
11 | GGCCCGATTT | 1.01 ± 0.024
12 | ATGGGTAGTG | 0.984 ± 0.02
13 | ATGGGGATGG | 0.978 ± 0.033
14 | TACACGGTCA | 1.047 ± 0.0054
15 | TTATAGTGTT | 0.994 ± 0.012
16 | ATATACGAGT | 1.002 ± 0.005
17 | AATGTGTGCT | 0.949 ± 0.0099
18 | GGGTCGCCAT | 1 ± 0.028
19 | CGGTTTTAGC | 0.968 ± 0.042
20 | TTTTATAATG | 1.038 ± 0.0011
21 | GGGTGGCGAC | 0.988 ± 0.014
22 | TTTCTATGGA | 1.0135 ± 0.0006
23 | AGGGGAAACA | 1.01 ± 0.031

Row | Sequence | switch fluorescence ratio
24 | CGTGCCGTGG | 0.995 ± 0.024
25 | ACTCATGATG | 0.99 ± 0.024
26 | CATCGGGTGG | 1.03 ± 0.09
27 | TGATTGGAGG | 0.994 ± 0.038
28 | ATGCGACGCT | 1.091 ± 0.0038
29 | TTTTTTGTGG | 0.978 ± 0.031
30 | ATGGACTGAA | 0.992 ± 0.013
31 | GGGATGTGGT | 1.01 ± 0.023
32 | CGGGGGCGCG | 1.02 ± 0.021
33 | CGTGATATCT | 1.05 ± 0.018
34 | TTGAGGACAG | 1.02 ± 0.025
35 | GGGAAGAGTG | 0.993 ± 0.02
36 | CTGATGTCTA | 0.977 ± 0.022
37 | AGATGGATAA | 0.99 ± 0.015
38 | TCCAAGGCTT | 1.038 ± 0.0014
39 | AAAGCACTAG | 1.11 ± 0.055
40 | CGGTTCTACG | 1.009 ± 0.0053
41 | TGGTTAAATC | 1.03 ± 0.019
42 | AGCGACCCGG | 1.08 ± 0.033
43 | TGGCTCTGAG | 0.9973 ± 0.0028
44 | CTAGGGAGAG | 0.9912 ± 0.0069
45 | AAGGACGGCC | 0.998 ± 0.026
46 | AGTACATAGT | 0.99 ± 0.024

Row | Sequence | switch fluorescence ratio
47 | CATAGAATTT | 0.978 ± 0.084
48 | TTAATTATCA | 0.998 ± 0.018
49 | TTTCCATGGA | 0.984 ± 0.029
50 | TGATAGGGCG | 0.963 ± 0.08
51 | TAAAAAATTC | 1.03 ± 0.04
52 | TAGGGTGCTG | 1.09 ± 0.16
53 | CATGGTAGGA | 0.975 ± 0.026
54 | GGGTCAGTAG | 1.032 ± 0.0087
55 | TTTAGCATGT | 1.04 ± 0.073
56 | GGCTGAGCGG | 0.976 ± 0.027
57 | GGCGTCTTCC | 1.01 ± 0.037
58 | TTGGGGATGC | 1.33 ± 0.23
59 | GTTGGGGAAA | 0.9985 ± 0.0075
60 | GAACGGCATG | 1.04 ± 0.015
61 | GGCCGATTTT | 0.9813 ± 0.0042
62 | AAATGCTAGC | 1.01 ± 0.039
63 | CTGGTTGTCT | 1.01 ± 0.006
64 | ATTCTTGGGT | 1 ± 0.075
65 | AGGTAAATGG | 1.02 ± 0.026
66 | AACGGGGAAG | 0.995 ± 0.022
67 | GAGCTCAAGT | 0.991 ± 0.062
68 | CCTGAGGTGT | 1.47 ± 0.18
69 | TGGATCAGTG | 0.993 ± 0.046

Row | Sequence | switch fluorescence ratio
70 | GTGAGGGGTT | 0.971 ± 0.044
71 | CGGTAGGGGA | 1.023 ± 0.01
72 | TCACGAGTTT | 1.014 ± 0.0038
73 | TGTTGGACGG | 1.07 ± 0.037
74 | GGATAGATGG | 0.986 ± 0.02
75 | TTTGACAGGA | 1.06 ± 0.057
76 | TCGATTCGGT | 1.02 ± 0.026
77 | AGTTTCCTGC | 1.01 ± 0.015
78 | TTTGGTTTGG | 1.01 ± 0.036
79 | GCTCGGGGGG | 0.987 ± 0.031
80 | ACATGATAGT | 1.01 ± 0.043
81 | AAACCCTGAG | 1.14 ± 0.2
82 | TTTTATGAAA | 0.997 ± 0.012
83 | TATTAAGAAT | 0.987 ± 0.0043
84 | AAAAGTAGTT | 1.01 ± 0.038
85 | AGGGTATTAT | 0.987 ± 0.019
86 | TGGTTTCGTG | 1.01 ± 0.023
87 | AATGTTGAAG | 0.987 ± 0.034
88 | CTGACGGATT | 1.2 ± 0.054
89 | CACAGCAGTC | 2.62 ± 0.34
90 | ATTTTAACGT | 1.01 ± 0.046
91 | CGGGTGGAGG | 1.02 ± 0.018
92 | CAATTGGCCT | 1.05 ± 0.03

Row | Sequence | switch fluorescence ratio
93 | GTACTTTCGG | 0.98 ± 0.015
94 | TAGGCCGCTG | 1.07 ± 0.15
95 | AATATAGGGT | 0.997 ± 0.028
96 | TATGTTTTAT | 1.02 ± 0.048
97 | AATAGGTGGG | 0.951 ± 0.016
98 | GAAGGCGTTT | 0.9778 ± 0.0032
99 | GAGTAACTGG | 0.983 ± 0.027
100 | GGGGATAAGC | 0.992 ± 0.048
101 | TTAATTTAG | 0.985 ± 0.027
102 | GTGCATGTGG | 0.9701 ± 0.0056
103 | TGTTCGGTGT | 1.008 ± 0.0049
104 | ACTTGTTTGC | 1.03 ± 0.035
105 | GTTAATTTGC | 0.984 ± 0.04
106 | GTTGAAACTT | 0.9976 ± 0.004
107 | AGTCTAGTGG | 0.985 ± 0.027
108 | TGTGGAAGTT | 0.9686 ± 0.0021
109 | CGTTTCAGAT | 1.02 ± 0.02
110 | GAGATCTGCT | 0.957 ± 0.015
111 | GTGAAATTTT | 1.01 ± 0.039
112 | CGCTTAGTGG | 1.03 ± 0.0027
113 | GGGGGTACCT | 1.02 ± 0.019
114 | AGGTGCTAAT | 0.968 ± 0.011
115 | CATTTAAGAT | 0.997 ± 0.024

Row | Sequence | switch fluorescence ratio
116 | GACTATGAAG | 0.99431 ± 0.00011
117 | CAGGCTGGGC | 0.9862 ± 0.008
118 | GAGGATGCTC | 1.01 ± 0.015
119 | TTTTGTTTT | 1.02 ± 0.027
120 | GTAATGGATC | 0.986 ± 0.042
121 | ATGTATAGCA | 1 ± 0.041
122 | ATAGTCCACC | 1.014 ± 0.0072
123 | AAAATAATGG | 0.998 ± 0.04
124 | TTTGTTTTAC | 1.18 ± 0.21
125 | TATGGGCCAG | 0.996 ± 0.02
126 | TTTTGTGTTC | 0.993 ± 0.027
127 | CAATTATGAC | 1 ± 0.045
128 | AAAGATTGAC | 1.01 ± 0.08
129 | TGTAAGGGAA | 1.01 ± 0.018
130 | TGATGGGAGT | 0.983 ± 0.014
131 | AAAGGTAACG | 1.001 ± 0.0021
132 | CAAGAGGGCT | 1.024 ± 0.0043
133 | GCTTTTAGGT | 0.968 ± 0.06
134 | GTGGGAGGAG | 0.985 ± 0.031
135 | AGTAGAGATG | 1.03 ± 0.028
136 | TTGGCCCGGG | 1.01 ± 0.059
137 | TCTTTTTTAG | 0.998 ± 0.036
138 | CTCCGATGAT | 3.03 ± 0.62

Row | Sequence | switch fluorescence ratio
139 | TTCCGGGGTT | 1.03 ± 0.022
140 | AGATCTTGTA | 0.991 ± 0.065
141 | GAGAGTTGCG | 1.04 ± 0.027
142 | TTCCTAATTG | 1.01 ± 0.012
143 | GGAACCCAGA | 0.988 ± 0.021
144 | GTGTTATATA | 0.986 ± 0.013
145 | ACTGGTAAGG | 1.009 ± 0.0053
146 | GCCGAGGTGA | 1.09 ± 0.13
147 | TAATATCCTA | 1 ± 0.048
148 | GAGTATTAAT | 1.01 ± 0.02
149 | ATGGATGGGC | 1.04 ± 0.057
150 | AATGTTTAAA | 0.9764 ± 0.0016
151 | CATATGGGGC | 1.048 ± 0.00092
152 | TTGGCTCTTT | 1.01 ± 0.02
153 | CGCGTAAAAT | 1.04 ± 0.035
154 | AAAGGGTCGA | 1.02 ± 0.03
155 | GCGTAATCTT | 0.988 ± 0.035
156 | TAGGAAGGCA | 0.967 ± 0.0024
157 | ATGTTCGTTA | 1.0123 ± 0.00085
